Source: patent publication US12551573B2, “Compositions and methods for the targeting of PCSK9” (Scribe Therapeutics Inc., priority 2022, dated 2026)
Residue numbers refer to the chain shown, from its start.

B1: DOMAIN_6445 (protein, listed as Alligator sinensis)
chain: MELREAFEDVAVYFTRKEWELLEDEDKELYRDLMLRNYQALVSLGYQGPTPGLICRIKQREVELWVCDDEHHGESSVSENL
B2: DOMAIN_6807 (protein, listed as Xenopus laevis)
chain: LVKFEEVAVVFSEDEWNLLSDQQRGLYMEVMKENYEHLIYLGYEVPVILSLLQDGGGISSDAGSQSKSQQVAVAEGSNVNS
B3: DOMAIN_6737 (protein)
chain: QMLVTFEDIAVSFSKEEWEYLDEGQKELYREVMKENYQTLISLGTGFPTVIPEIISHIEQGDEPGSEERENGKSSCSGESG
modifications: Microcaecilia unicolor
B4: DOMAIN_7353 (protein)
chain: AQMQVTFEDIAVFFCHEEWKYLDDGQKELYKEVMKENYETLISLGFLCEKPSLISKIEREEDPCVRDQQDFRERRRRLKSF
modifications: Microcaecilia unicolor
B5: DOMAIN_6398 (protein, listed as Gopherus agassizii)
chain: MPVTFEEVAVYFTEGQGALLDPAQRALYRDVMQEIYEMVISLGFLLPKPDVIIQLERGEEPWVPDLQGSAEREMSRGTCAG
B6: DOMAIN_7098 (protein)
chain: QVPVIFEDVAVYFWEEEWEMLEEWQKELYKETMKENYKTLVSLGMELPTEKPDLIVRIEREENPCVKAQWDSRDKTRWRNS
modifications: Microcaecilia unicolor
B7: DOMAIN_7109 (protein)
chain: MRVTFEDIAVSFSQEEWEYLDEEQKELYREVMKENYQTLISLGAGSLTFTPEIISHIERGEEPYSRDEPGSGEREPGKSRC
modifications: Microcaecilia unicolor
B8: DOMAIN_6952 (protein, listed as Alligator mississippiensis)
chain: DQLQEAFEDVALYFTQNEWELLGDGDKVLYRDQMLRNYQALVSLGYQGPAPDLISRIQRQEVELWVCEEENPGESVWTEGL
B9: DOMAIN_6738 (protein)
chain: FQTLLAFEDVAVFFSEEEWELLDELQKEVYKNTMRENYETLLSLGLTNMKPEIIAKIDAGEAPSVQNASYLEKRGKKSAAG
modifications: Microcaecilia unicolor
B10: DOMAIN_6472 (protein, listed as Alligator sinensis)
chain: VVLLEAFEDVAVYFTQKEWALLDDGDKALYRDQMLRNYQALISLGYRGPTPALINRIQRGEMELWVCDKDYGEKSSLEGLF
B11: DOMAIN_6938 (protein, listed as Alligator mississippiensis)
chain: SKLPEAFEDVAVYFTRKEWELLEAGDKGLYQDQMLRNYQALVSLGLQGPAPDLICRMQLGEMELWVCDDEEAGESSLSEDF
B12: DOMAIN_7183 (protein)
chain: VQVPVTFEDVAVYFSEDEWGMLAGWQKELYKETMKENYETLTLLGCLSEKPSLISKIEREEDPCVRDQQDPRDRRKLRSSW
modifications: Microcaecilia unicolor
B13: DOMAIN_7184 (protein)
chain: TQMQVKFDDIAVSFSQEEWKYLDEEQKELYREVMKENYQILISLGTGSSTTPKIISHIERGEEPYIRDEPVLVERKTGKSS
modifications: Microcaecilia unicolor
B14: DOMAIN_6356 (protein, listed as Terrapene carolina)
chain: MSVTFEDVAMYFSPAEWVLLGEEQKQLYRHVMWENYQTLVSLGIQISKPVVISSIERGEELWAQSPTEDEDEDILSGTSPG
B15: DOMAIN_6410 (protein, listed as Podarcis muralis)
chain: GLVSFDEVSVHFTNEEWALLDPGQRALYEEVMEEIREMMTSVGDVSEFLTEGEQSEPSREGAEEQKEQRKQRVQVGTYRKE
B16: DOMAIN_6433 (protein, listed as Podarcis muralis)
chain: B15 chain with L2S, H11R, T13S, P57L, K80N
B17: DOMAIN_6697 (protein, listed as Podarcis muralis)
chain: B15 chain with L2S, H11R, T13S
B18: DOMAIN_8012 (protein, listed as Callipepla squamata)
chain: PSVPVTFRDVFVQFSRDEWALLDDEQKELHQSVMQSNYEVLMSLYCDLAKPEVLLQMERGEPCLPAEPDLQGAAVSLNPAA
B19: DOMAIN_8545 (protein, listed as Rattus norvegicus)
chain: APLPLTFEDVAIYFSEQEWQHLETWQKELYKQVMRTNYETLISLDNGLPKPELISWMELGRENFGSWGEGQKVDRGIRCSV
B20: DOMAIN_8425 (protein, listed as Peromyscus maniculatus)
chain: HKKSMVFSDVSLDFSQEEWECLGPAQKDLYRDVMLENYSHLLSVAGLHIPKPQVISLLEQGKEPWMIGKELTRGLCSALES
B21: DOMAIN_7716 (protein)
chain: VAFEDVAVYFTAEEWDLLGPNQKSLYSEVMMENYENVSYLADNWKKTIAFAHSQKDFIHKLHQRTHKEDEHHTRAEPCEST
modifications: Pogona vitticeps
B22: DOMAIN_8742 (protein, listed as Peromyscus maniculatus)
chain: MGSVSFEDISLDFTWDEWQDLDSAQRTLYRDVMLENYSSLMFLGHCTTKPELIFKLEHGFGPWSLAEASIQSLPGVHKMTV
B23: DOMAIN_8712 (protein, listed as Mesocricetus auratus)
chain: PADRDAVTYDDVHIGFTQEEWVLLNPSQKSLYKDVMLDTYRNLTAIGYRWQDHNIEEHCENSRRHRRKFSCTTKPYESLQN
B24: DOMAIN_8555 (protein, listed as Cricetulus griseus)
chain: MAFEDVAVYFSQEEWVFLDAAQRALYRHVMLENFALVDSIGLSISRPRVIIQLQRGEEPWVPNRTNTGPGRGTRRRPSLGS
B25: DOMAIN_8618 (protein, listed as Mesocricetus auratus)
chain: MESVSFEDVAVNFTPEEWALLNSSQKRLHRDVMQENFRNLAAIAKNQEDPTLEDDYEYLRKILPFAVQTGYRLCENQDYAE
B26: DOMAIN_7605 (protein, listed as Alligator sinensis)
chain: SKLSEAFEDVAVYFTWKEWALLEAADKMLYRDQMLKNYQALFSLGYRGPTPDLICRIQRGEMELWVSDLEEAGESSLSEDS
B27: DOMAIN_8340 (protein, listed as Peromyscus maniculatus)
chain: EQDAVTYEDVHVNFTHEEWALLDPSQKSLYKDVMMETYWNLTCIGYKWEDHNIEEHCQSCRRNGSRCVICHSGHNPCEHKG
B28: DOMAIN_7774 (protein)
chain: PQDSVTFEEVAVSFSREEWALLTDWQKNLYKDVMRDNYEMLNSLDLAAHKPDIILRIERGQEPCVGRLQRSKARERPNHVF
modifications: Pogona vitticeps
B29: DOMAIN_8317 (protein, listed as Mus caroli)
chain: CQALVTFEDVAVTFTDDEWKRLVPVQRALYKAVMLENYESIISLGLPVPRPDLILQFKRRGEPWMRGFHGSEEKAWPESVS
B30: DOMAIN_7607 (protein, listed as Alligator sinensis)
chain: MEPRDAFEDVAVYFTREEWALLDDGDKGLYRDQMLRNYQALVSLGYRGPTPDLICCIQRGKVELWVRDGEDHGEISGSEDL
B31: DOMAIN_7813 (protein, listed as Columba livia)
chain: WQEPVTFEDVAVYLSHAEWDAMAPEQRELYCSVMLDNYQLLASLGYPGPKPDIVYRLERGEEPWGCAPQSPLSWDGPRSPS
B32: DOMAIN_8492 (protein, listed as Mus musculus)
chain: RERLVSFEDVTVDFSQEEWRRLDSVQRHLYQDVMLEIYSHLLAVGYPVPSPGAIFRIKKRKEARTGEAKLPHPCWCQEVES
B33: DOMAIN_8282 (protein, listed as Peromyscus maniculatus)
chain: FQNSLTYDDVHINFTCEEWALLDASQKRLYKDVMLETYSNLTAIGYKWEDHNIEEHCQRFRRRGRHKRSRTEERPYECKQC
B34: DOMAIN_8460 (protein, listed as Peromyscus maniculatus)
chain: MNAVTYDDVHVDFTWDEWALLDPSQKNLYKNVMLETYRNLTAIGYKWEEHNINEKFQRSRRNRRHERSHTGEKSYECNQCG
B35: DOMAIN_8746 (protein, listed as Mesocricetus auratus)
chain: SQGLVTFGDVAVVFSQEEWEWLSSEQRSLYWRVMLDNYRNLASLGLCASKPDMIALLEQGKDPCVLKRKTARGLRPDLEAV
B36: DOMAIN_8036 (protein, listed as Alligator mississippiensis)
chain: AQRWEAFEDVALYFTQKEWELLRDGDKVLYQEQMLRNYQALVSLGYQGPTPDLICRIQRGDMELWVCDDEDPKESMWSEGL
B37: DOMAIN_8424 (protein, listed as Peromyscus maniculatus)
chain: MDAVTYEDVQVSFTREEWTLLDPSQKSLYKDVMVETYRNLTAIGYKWEDQNIKKHHQCSRRHGRHERSNSAEKDYECEQCG

The molecules below were run on HBEGF locus. Settings: high-throughput screen of dXR repression of the HBEGF gene; change in abundance of each domain in the library before and after diphtheria toxin selection.
Type: cell-based, human

Row | Molecule | Log2 (fold change)
1 | B1 | 3.1151
2 | B2 | 3.1615
3 | B3 | 2.4861
4 | B4 | 2.6649
5 | B5 | 2.8238
6 | B6 | 2.7074
7 | B7 | 2.9932
8 | B8 | 2.3403
9 | B9 | 2.9275
10 | B10 | 2.9259
11 | B11 | 2.6093
12 | B12 | 2.4918
13 | B13 | 2.2019
14 | B14 | 2.9197
15 | B15 | 2.7633
16 | B16 | 3.0313
17 | B17 | 2.6712

Same assay, conditions: repressor domain in dXR, repression of the HBEGF gene; abundance of domain in library after vs before diphtheria toxin selection

Row | Molecule | Log2 (fold change)
18 | B18 | 3.2046
19 | B19 | 3.1044
20 | B20 | 2.8391
21 | B21 | 3.1171
22 | B22 | 2.3354
23 | B23 | 2.7776
24 | B24 | 3.2852
25 | B25 | 2.6363
26 | B26 | 2.8444
27 | B27 | 2.2764
28 | B28 | 3.427
29 | B29 | 3.3091
30 | B30 | 2.7102
31 | B31 | 3.4645
32 | B32 | 3.3107
33 | B33 | 3.9882
34 | B34 | 3.1352
35 | B35 | 3.317
36 | B36 | 2.3504
37 | B37 | 2.7945
